Source: patent US20230365711A1 (Hoffmann-La Roche, published 2023)
Substitutions are numbered along the chain they refer to. Names may count otherwise.

What was measured:
[1] = target: T1, human carcinoembryonic antigen (CEA), membrane-bound on cells (human, UniProt P06731 35-685); test: flow cytometry on MKN45 cells, IgG1/kappa
T1 construct: whole, on cells; also called CEACAM-5; CD66e
T1 sequence (looked up): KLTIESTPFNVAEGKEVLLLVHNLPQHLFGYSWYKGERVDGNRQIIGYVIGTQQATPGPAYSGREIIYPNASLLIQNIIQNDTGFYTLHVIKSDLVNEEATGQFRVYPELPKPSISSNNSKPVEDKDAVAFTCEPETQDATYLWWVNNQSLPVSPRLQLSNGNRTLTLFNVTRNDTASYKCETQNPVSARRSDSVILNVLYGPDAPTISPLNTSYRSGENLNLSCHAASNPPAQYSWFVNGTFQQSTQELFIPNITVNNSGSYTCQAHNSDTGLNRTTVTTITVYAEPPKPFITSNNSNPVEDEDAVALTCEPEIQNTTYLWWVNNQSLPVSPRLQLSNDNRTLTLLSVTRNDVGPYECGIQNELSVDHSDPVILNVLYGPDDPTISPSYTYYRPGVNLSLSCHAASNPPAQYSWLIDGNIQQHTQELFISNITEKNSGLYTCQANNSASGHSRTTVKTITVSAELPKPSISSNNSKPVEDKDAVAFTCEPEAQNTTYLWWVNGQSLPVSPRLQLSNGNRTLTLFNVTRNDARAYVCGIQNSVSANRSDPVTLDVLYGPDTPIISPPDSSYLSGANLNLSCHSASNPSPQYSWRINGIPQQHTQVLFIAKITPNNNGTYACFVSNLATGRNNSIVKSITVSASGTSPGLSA
Procedure: An affinity matured heavy chain variable region construct, CH7A rF9, and an affinity matured light chain variable region construct, CL1A rH11, were paired with the parent light chain variable region construct and the heavy chain variable region construct, respectively, and with each other. All antibodies were converted into human IgG1/kappa and binding to the CEA-positive cell-line MKN45 was measured by flow cytometry. […] The matured light chain shifts the EC50 values to lower numbers, whereas the matured heavy chains (rF9 in FIG. 6, and rB9 in FIG. 15) shift the total fluorescence signal intensity in a flow-cytometry measurement. […] The combination of these two chains increases the affinity even further.

[2] = target: T2, huNABA-avi-his (hybrid protein N-A1-B3-A2: N and A1 domains of human BGP, B3 domain of human CEA, A2 domain … (human, biotinylated at the avi tag (in vivo, co-transfected biotin ligase))); test: Proteon SPR, antibody analyte on biotinylated NABA (Neutravidin chip); column Ka (M)
T2 construct: also called NABA-avi-his reagent; biotinylated NABA
T2 chain: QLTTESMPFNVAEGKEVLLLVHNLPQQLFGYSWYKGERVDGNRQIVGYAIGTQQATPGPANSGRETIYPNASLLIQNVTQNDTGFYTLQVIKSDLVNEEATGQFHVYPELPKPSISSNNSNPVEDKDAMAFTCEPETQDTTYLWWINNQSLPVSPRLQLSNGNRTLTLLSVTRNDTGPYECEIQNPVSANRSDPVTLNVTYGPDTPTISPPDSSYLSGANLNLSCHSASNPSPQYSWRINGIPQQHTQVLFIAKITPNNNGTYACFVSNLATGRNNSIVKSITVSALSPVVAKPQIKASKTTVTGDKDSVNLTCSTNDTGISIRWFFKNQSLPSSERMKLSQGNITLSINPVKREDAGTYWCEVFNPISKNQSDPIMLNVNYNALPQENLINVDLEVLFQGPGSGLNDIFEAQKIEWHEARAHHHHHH
Excerpt: (§1) Shown in FIG. 22 are Proteon (Biacore) sensorgrams obtained for the binding of the CDR-H3 antibody variants to the CEA antigen-harbouring chimeric protein NABA. […] The affinity matured precursor clone 5HFF12 and the parental antibody CH7A were included for direct comparison. All antibodies tested in this assay had 2F1 as the light chain. […] The relative affinity of each, measured in the bivalent form, is as follows: 5HFF12>CH7A (Y98A/D99Y)>CH7A (Y98A)>CH7A>CH7A (E102Q)>CH7A (D99Y)>CH7A (D99H)>CH7A (A103T)>CH7A (V101F)>CH7A (W95Y).

[3] = target: T2, huNABA-avi-his (hybrid protein …); test: Proteon SPR, antibody analyte on biotinylated NABA (Neutravidin chip)
Excerpt: as §1

[4] = target: T2, huNABA-avi-his (hybrid protein …); test: as above
[5] = target: T1, human carcinoembryonic antigen (CEA), …; test: FACS on MKN45 cells
[6] = target: T2, huNABA-avi-his (hybrid protein …); test: Proteon SPR, antibody analyte on biotinylated NABA (Neutravidin chip); column Ka (M)
[7] = target: T2, huNABA-avi-his (hybrid protein …); test: Biacore, column Affinity, CDR-L1 and CDR-L2 rows; antigen not named on the sheet, NABA-avi-his per paragraph 230
[8] = target: T2, huNABA-avi-his (hybrid protein …); test: Biacore, Fab on immobilized NABA-avi-his; column Monovalent Affinity
[9] = target: T2, huNABA-avi-his (hybrid protein …); test: Biacore, column Affinity, CDR-H3 rows; antigen not named on the sheet, NABA-avi-his per paragraph 230

B1: antibody with affinity matured heavy chain variable region CH7A rF9 and affinity matured light chain variable region CL1A rH11 (antibody, V domains shown)
VH: QVQLVQSGSELKKPGASVKVSCKASGYTFTEYGMNWVRQAPGQGLEWMGWINTKSGEATYVEEFKGRFVFSLDTSVSTAYLQISSLKAEDTAVYYCARWDFYDYVEAMDYWGQGTTVTVSS
VL: DIQMTQSPSSLSASVGDRVTITCKASQTVSANVAWYQQKPGKAPKLLIYLASYRYRGVPSRFSGSGSGTDFTLTISSLQPEDFATYYCHQYYTYPLFTFGQGTKLEIK
notes: The suffix G2(1) is not explained; also called CH7ArF9 CL1A rH11; CH7Arf9, CL1A rH11G2(1)
[1]
  EC50 (read off the curve): ~0.5 µg/mL

B2: antibody with affinity matured heavy chain variable region CH7A rF9 and parent light chain variable region CL1A (antibody, human IgG1, V domains shown)
VH: B1 VH
VL: B1 VL with T28N, S30G, A31T, L50S, R56S
notes: also called CH7A rF9, CL1A
[1]
  EC50 (read off the curve): ~0.7 µg/mL

B3: antibody with heavy chain CH7A (Y98A) and light chain 2F1 (antibody, V domains shown)
VH: B1 VH with Y32F, S55T, Y102A
VL: DIQMTQSPSSLSASVGDRVTITCKASAAVGTYVAWYQQKPGKAPKLLIYSASYRKRGVPSRFSGSGSGTDFTLTISSLQPEDFATYYCHQYYTYPLFTFGQGTKLEIKR
notes: Bivalent form
[2]
  kon: 132000 M⁻¹ s⁻¹
[3]
  Kd: 0.52 nM

B4: anti-CEA antibody with heavy chain CH1A1 and light chain 2F1 (antibody, V domains shown)
VH: QVQLVQSGAEVKKPGASVKVSCKASGYTFTEFGMNWVRQAPGQGLEWMGWINTKTGEATYVEEFKGRVTFTLDTSTSTAYMELRSLRSDDTAVYYCARWDFYDYVEAMDYWGQGTTVTVSS
VL: B3 VL
notes: CH1A with M69F/T71L double point mutation; also called precursor clone CH1A1
[4]
  Kd: 4.24 nM
[5]
  EC50 (read off the curve): ~1 µg/mL
[6]
  kon: 81900 M⁻¹ s⁻¹

B5: anti-CEA antibody with heavy chain CH1A1A and light chain 2F1 (antibody, V domains shown)
VH: B4 VH with L72T
VL: B3 VL
[4]
  Kd: 5.91 nM
[5]
  EC50 (read off the curve): ~1 µg/mL
[6]
  kon: 81800 M⁻¹ s⁻¹

B6: anti-CEA antibody with heavy chain CH1A1B and light chain 2F1 (antibody, V domains shown)
VH: B4 VH with Q3K, V5Q, F70M, L72T
VL: B3 VL
[4]
  Kd: 8.9 nM
[5]
  EC50 (read off the curve): ~1 µg/mL
[6]
  kon: 53700 M⁻¹ s⁻¹

B7: anti-CEA antibody with heavy chain CH1A1C and light chain 2F1 (antibody, V domains shown)
VH: B4 VH with A9P, V11L, F70M, L72T
VL: B3 VL
[4]
  Kd: 13 nM
[5]
  EC50 (read off the curve): ~1 µg/mL
[6]
  kon: 44900 M⁻¹ s⁻¹

B8: anti-CEA antibody with heavy chain CH1A1D and light chain 2F1 (antibody, V domains shown)
VH: B4 VH with A16E, S17T, V20I, F70M, L72T
VL: B3 VL
[4]
  Kd: 9.28 nM
[5]
  EC50 (read off the curve): ~1 µg/mL
[6]
  kon: 53100 M⁻¹ s⁻¹

B9: anti-CEA antibody with heavy chain CH1A1F and light chain 2F1 (antibody, V domains shown)
VH: B4 VH with F70M, L72T, M81L
VL: B3 VL
[4]
  Kd: 7.58 nM
[5]
  EC50 (read off the curve): ~1 µg/mL
[6]
  kon: 70800 M⁻¹ s⁻¹

B10: 3A1 (Fab, V domains shown)
VH: B1 VH with Y32F, S55T
VL: B1 VL with Q27A, T28N, S30G, A31N, Y53N, Y55S, R56G
notes: also called pAC21 (3A1); 3A1 wt/lc
[7]
  Kd: 250 nM
[8]
  Kd: 250 nM
  koff: 0.0117 s⁻¹
  kon: 46800 M⁻¹ s⁻¹

B11: H3 Full (5) 27 (Fab, V domains shown)
VH: B1 VH with Y32F, S55T, Y102S, D103Y
VL: B1 VL with T28N, S30G, A31T, L50S, R56S
[9]
  Kd: 132 nM

B12: L2D2 (Fab, V domains shown)
VH: B1 VH with Y32F, S55T
VL: B1 VL with Q27H, T28N, S30G, A31T, L50S, Y53H, R56S
[7]
  Kd: 2260 nM

B13: pAC19 (2C6) (Fab, V domains shown)
VH: B1 VH with Y32F, S55T
VL: B1 VL with Q27K, T28N, S30G, A31T, L46P, R54P, Y55Q, R56I
[7]
  Kd: 700 nM

B14: pAC23 (2F11) (Fab, V domains shown)
VH: B1 VH with Y32F, S55T
VL: B1 VL with T28I, V29A, A31T, L50W, R56S
[7]
  Kd: 290 nM

B15: 3E1 (Fab, V domains shown)
VH: B1 VH with Y32F, S55T, Y102V
VL: B1 VL with T28N, S30G, A31T, L50S, R56S
[9]
  Kd: 1890 nM

B16: 2D7 (Fab, V domains shown)
VH: B1 VH with Y32F, S55T, D103W
VL: B1 VL with T28N, S30G, A31T, L50S, R56S
[9]
  Kd: 746 nM

B17: H3 Full (5) 8 (Fab, V domains shown)
VH: B1 VH with Y32F, S55T, Y102F, D103E, V105F, E106K, A107T
VL: B1 VL with T28N, S30G, A31T, L50S, R56S
[8]
  Kd: 51 nM
  koff: 0.0014 s⁻¹
  kon: 27300 M⁻¹ s⁻¹
[9]
  Kd: 51 nM

B18: H3 Full (5) 28 (Fab, V domains shown)
VH: B1 VH with Y32F, S55T, Y102F, D103Y, E106Q, A107T
VL: B1 VL with T28N, S30G, A31T, L50S, R56S
[9]
  Kd: 81 nM
